The text below walks through data of paper PMC12847774, “SERPINB3 enhances NPM1 sumoylation via inhibiting SENP3’s activity and promotes lung tumorigenesis” (Cell Death & Disease, 2025).

This experiment deals with T1, SENP3 purified protein (UniProt Q9H4L4 1-574).
T1 construct: SENP3; cloned into pET-28a(+) between BamHI and HindIII; also called wild-type SENP3; pET-28a (+)-SENP3; source: E. coli Rosetta (DE3), purified (Ni-NTA)
Description: co-IP; in vitro immunoprecipitation with Flag antibody using purified recombinant proteins. The note with it: both partners purified.

T1 sequence (Q9H4L4 whole entry): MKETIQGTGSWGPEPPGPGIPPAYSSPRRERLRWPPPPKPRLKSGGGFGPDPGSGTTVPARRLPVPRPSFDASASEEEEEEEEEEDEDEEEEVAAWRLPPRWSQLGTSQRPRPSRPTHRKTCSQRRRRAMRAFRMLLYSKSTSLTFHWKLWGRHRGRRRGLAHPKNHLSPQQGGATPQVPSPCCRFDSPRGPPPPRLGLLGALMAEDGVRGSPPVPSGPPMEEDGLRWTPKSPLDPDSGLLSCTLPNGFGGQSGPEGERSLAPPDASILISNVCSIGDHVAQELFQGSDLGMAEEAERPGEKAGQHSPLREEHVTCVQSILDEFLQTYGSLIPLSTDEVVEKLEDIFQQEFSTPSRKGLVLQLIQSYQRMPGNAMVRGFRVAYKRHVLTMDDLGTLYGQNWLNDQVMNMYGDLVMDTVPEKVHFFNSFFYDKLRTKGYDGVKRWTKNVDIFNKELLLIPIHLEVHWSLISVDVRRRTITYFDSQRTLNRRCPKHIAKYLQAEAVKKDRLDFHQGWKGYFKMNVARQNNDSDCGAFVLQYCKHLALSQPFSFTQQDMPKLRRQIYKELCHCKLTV

B1: Flag-SERPINB3 purified protein (natural protein, UniProt P29508 1-390, looked up)
chain: MNSLSEANTKFMFDLFQQFRKSKENNIFYSPISITSALGMVLLGAKDNTAQQIKKVLHFDQVTENTTGKAATYHVDRSGNVHHQFQKLLTEFNKSTDAYELKIANKLFGEKTYLFLQEYLDAIKKFYQTSVESVDFANAPEESRKKINSWVESQTNEKIKNLIPEGNIGSNTTLVLVNAIYFKGQWEKKFNKEDTKEEKFWPNKNTYKSIQMMRQYTSFHFASLEDVQAKVLEIPYKGKDLSMIVLLPNEIDGLQKLEEKLTAEKLMEWTSLQNMRETRVDLHLPRFKVEESYDLKDTLRTMGMVDIFNGDADLSGMTGSRGLVLSGVLHKAFVEVTEEGAEAAAATAVVGFGSSPTSTNEEFHCNHPFLFFIRQNKTNSILFYGRFSSP
notes: SERPINB3; cloned into pET-28a(+) between BamHI and HindIII; the methods name only pET-28a (+)-SERPINB3; also called SCCA1; pET-28a (+)-SERPINB3; source: E. coli BL21(DE3), purified (Ni-NTA)
For B1, the binding result is reported as “binds”.
